Experimental data: the supplement of paper PMC7877785
± gives the uncertainty stated by the source.

Test: self-splicing fitness, log relative to wild type (ln ratio); higher = more splicing; Tetrahymena group I intron in knt gene, E. coli kanamycin selection, DiMSum; sequences stand for … in CUCUCU…GGAGGGAAAAGUUAUCAGGCAUGCACCUGGUAGCUAGUCUUUAAACCAAUAGAUUGCAUCGGUUUAAAAGGCAAGACCGUCAAAUUGCGGGAAAGGGGUCAACAGCCGUUCAGUACCAAGUCUCAGGGGAAACUUUGAGAUGGCCUUGCAAAGGGUAUGGUAAUAAGCUGACGGACAUGGUCCUAACCACGCAGCCAAGUCCUAAGUCAACAGAUCUUCUGUUGAUAUGGAUGCAGUUCACAGACUAAAUGUCGGUCGGGGAAGAUGUAUUCUUCUCAUAAGAUAUAGUCGGACCUCUCCUUAAUGGGAGCUAGCGGAUGAAGUGAUGCAACACUGGAGCCGCUGGGAACUAAUUUGUAUGCGAAAGUAUAUUGAUUAGUUUUGGAGUACUCGUGGUCG
Procedure, shortened: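 Fitness was computed with DiMSum as the error-weighted combination of replicate fold changes, kanamycin versus none, each normalised to wild type. The library randomised all eight intron nucleotides of the P1ex region, with the intron placed in the knt kanamycin-resistance gene on pET-22b(+) in E. coli BL21(DE3). Six replicate transformations were grown overnight at 37°C or 30°C on LB agar with or without 25 μg/mL kanamycin, plus 100 μg/mL carbenicillin, 50 μM IPTG and 0.2% rhamnose. Pooled colonies were amplicon-sequenced on an Illumina HiSeq 2500.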

Sequence | self-splicing fitness (ln) (30 °C) | self-splicing fitness (ln) (37 °C)
GCUCAGCAAUAUUACGGCAU | -2.29 ± 0.2 | -1.72 ± 0.15
GCUCAGCAAUAUUACGGGCC | -2.8 ± 0.2 | -3.37 ± 0.25
GCUCAGCAAUAUUACGGGGU | -3.51 ± 0.15 | -1.39 ± 0.14
GCUCAGCAAUAUUACGGGUC | -3.6 ± 0.22 | -2.91 ± 0.23
GCUCAGCAAUAUUACGGUCA | -1.12 ± 0.09 | -0.085 ± 0.082
GCUCAGCAAUAUUACGUAAC | -1 ± 0.087 | -0.439 ± 0.11
GCUCAGCAAUAUUACGUCGA | -3.22 ± 0.17 | -2.45 ± 0.16
GCUCAGCAAUAUUACGUCGC | -1.95 ± 0.17 | -0.137 ± 0.16
GCUCAGCAAUAUUACGUGCU | -2.26 ± 0.086 | -0.582 ± 0.09
GCUCAGCAAUAUUACGUGGC | -3.61 ± 0.19 | -2.79 ± 0.3
GCUGAGCAAUAUUACGAAGA | -2.11 ± 0.21 | -0.81 ± 0.17
GCUGAGCAAUAUUACGACGU | -1.45 ± 0.057 | -0.232 ± 0.064
GCUGAGCAAUAUUACGACUC | -0.148 ± 0.2 | -0.469 ± 0.21
GCUGAGCAAUAUUACGAUAG | -1.35 ± 0.25 | -1.83 ± 0.26
GCUGAGCAAUAUUACGAUUA | -2.88 ± 0.37 | -0.431 ± 0.38
GCUGAGCAAUAUUACGCCAC | -4.02 ± 0.27 | -2.27 ± 0.26
GCUGAGCAAUAUUACGCCCG | -2.34 ± 0.27 | -0.207 ± 0.42
GCUGAGCAAUAUUACGCGUA | – | -2.23 ± 0.37
GCUGAGCAAUAUUACGCUAA | -3.04 ± 0.32 | –
GCUGAGCAAUAUUACGGAGA | -2.79 ± 0.43 | -1.85 ± 0.28
GCUGAGCAAUAUUACGGAGU | – | -2.38 ± 0.31
GCUGAGCAAUAUUACGGCAU | -2.59 ± 0.2 | -1.82 ± 0.18
GCUGAGCAAUAUUACGGCCC | – | -2.32 ± 0.35
GCUGAGCAAUAUUACGGCGU | -0.642 ± 0.14 | 0.234 ± 0.15
GCUGAGCAAUAUUACGGUUG | -3.64 ± 0.31 | -2.67 ± 0.35

Sequence | self-splicing fitness (ln) (30 °C) | self-splicing fitness (ln) (37 °C)
GCUGAGCAAUAUUACGUAAC | -2.3 ± 0.24 | -1.6 ± 0.36
GCUGAGCAAUAUUACGUACC | -1.54 ± 0.13 | -0.328 ± 0.18
GCUGAGCAAUAUUACGUCCU | -1.52 ± 0.15 | -1.06 ± 0.2
GCUGAGCAAUAUUACGUCGC | -2.96 ± 0.26 | -2.17 ± 0.24
GCUGAGCAAUAUUACGUCGG | – | -1.27 ± 0.41
GCUGAGCAAUAUUACGUGAA | -2.63 ± 0.22 | -1.35 ± 0.23
GCUGAGCAAUAUUACGUUAA | -3.04 ± 0.34 | -2.78 ± 0.32
GCUGAGCAAUAUUACGUUCA | -3.45 ± 0.28 | -1.81 ± 0.2
GCUUAGCAAUAUUACGACCC | -0.525 ± 0.22 | -0.569 ± 0.38
GCUUAGCAAUAUUACGACGA | -0.927 ± 0.16 | -0.516 ± 0.13
GCUUAGCAAUAUUACGACUC | -0.244 ± 0.15 | 0.619 ± 0.18
GCUUAGCAAUAUUACGAGAA | -1.2 ± 0.27 | -0.264 ± 0.22
GCUUAGCAAUAUUACGAGAC | -2.64 ± 0.22 | -1.54 ± 0.18
GCUUAGCAAUAUUACGAUCA | -1.1 ± 0.14 | -0.788 ± 0.16
GCUUAGCAAUAUUACGAUUU | -0.0141 ± 0.091 | -0.234 ± 0.12
GCUUAGCAAUAUUACGCGGC | -2.35 ± 0.29 | -2.19 ± 0.37
GCUUAGCAAUAUUACGCUAA | -2.91 ± 0.21 | -3.01 ± 0.26
GCUUAGCAAUAUUACGCUAC | – | -3.24 ± 0.28
GCUUAGCAAUAUUACGCUAU | -2.31 ± 0.16 | -1.38 ± 0.16
GCUUAGCAAUAUUACGCUUG | -2.53 ± 0.27 | -1.74 ± 0.36
GCUUAGCAAUAUUACGCUUU | -1.23 ± 0.064 | -0.413 ± 0.084
GCUUAGCAAUAUUACGGAAU | -1.15 ± 0.062 | 0.0941 ± 0.077
GCUUAGCAAUAUUACGGACG | -1.15 ± 0.13 | 0.122 ± 0.18
GCUUAGCAAUAUUACGGCUU | -0.91 ± 0.089 | -0.586 ± 0.11
GCUUAGCAAUAUUACGGGAC | -1.78 ± 0.18 | -1.19 ± 0.2
